Data published in US20250179524A1.

Molecular target: OX40 (receptor of OX40L) on tumor-infiltrating T cells of C57BL/6J mice (mouse) (UniProt P47741)
Assay: cell-based or functional assay

Chain of UniProt P47741 (P47741 20-272): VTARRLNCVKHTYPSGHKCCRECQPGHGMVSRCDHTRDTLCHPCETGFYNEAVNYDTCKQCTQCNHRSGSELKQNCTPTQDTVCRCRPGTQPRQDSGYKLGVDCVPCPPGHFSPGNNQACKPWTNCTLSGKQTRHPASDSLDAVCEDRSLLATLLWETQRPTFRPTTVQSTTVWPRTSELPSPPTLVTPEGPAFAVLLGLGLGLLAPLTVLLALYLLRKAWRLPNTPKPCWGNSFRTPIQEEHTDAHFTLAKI

## murine OX40L (muOX40L) polypeptide (ligand)
  percentages of OX40+FoxP3+CD4+ cells in injected tumors of WT mice (FACS): 19%
